Where two headings read alike, the source gives them in different places.
T1: GzmB peptide substrate AIEFDSGc on PEG-coated iron oxide nanoparticles (GzmB-sensing synthetic biomarker)
T1 chain: AIEFDSGC

B1: Cls (Sigma) (enzyme, UniProt P09871 16-688, looked up, species assumed)
Complement C1s subcomponent: EPTMYGEILSPNYPQAYPSEVEKSWDIEVPEGYGIHLYFTHLDIELSENCAYDSVQIISGDTEEGRLCGQRSSNNPHSPIVEEFQVPYNKLQVIFKSDFSNEERFTGFAAYYVATDINECTDFVDVPCSHFCNNFIGGYFCSCPPEYFLHDDMKNCGVNCSGDVFTALIGEIASPNYPKPYPENSRCEYQIRLEKGFQVVVTLRREDFDVEAADSAGNCLDSLVFVAGDRQFGPYCGHGFPGPLNIETKSNALDIIFQTDLTGQKKGWKLRYHGDPMPCPKEDTPNSVWEPAKAKYVFRDVVQITCLDGFEVVEGRVGATSFYSTCQSNGKWSNSKLKCQPVDCGIPESIENGKVEDPESTLFGSVIRYTCEEPYYYMENGGGGEYHCAGNGSWVNEVLGPELPKCVPVCGVPREPFEEKQRIIGGSDADIKNFPWQVFFDNPWAGGALINEYWVLTAAHVVEGNREPTMYVGSTSVQTSRLAKSKMLTPEHVFIHPGWKLLEVPEGRTNFDNDIALVRLKDPVKMGPTVSPICLPGTSSDYNLMDGDLGLISGWGRTEKRDRAVRLKAARLPVAPLRKCKEVKVEKPTADAEAYVFTPNMICAGGEKGMDSCKGDSGGAFAVQDPNDKTKFYAAGLVSWGPQCGTYGLYTRVKNYVDWIMKTMQENSTPRED
B2: mouse plasmin (HaemTech) (protein)
chain: VYLSECKTGIGNGYRGTMSRTKSGVACQKWGATFPHVPNYSPSTHPNEGLEENYCRNPDNDEQGPWCYTTDPDKRYDYCNIPECEEECMYCSGEKYEGKISKTMSGLDCQAWDSQSPHAHGYIPAKFPSKNLKMNYCRNPDGEPRPWCFTTDPTKRWEYCDIPRCTTPPPPPSPTYQCLKGRGENYRGTVSVTVSGKTCQRWSEQTPHRHNRTPENFPCKNLEENYCRNPDGETAPWCYTTDSQLRWEYCEIPSCESSASPDQSDSSVPPEEQTPVVQECYQSDGQSYRGTSSTTITGKKCQSWAAMFPHRHSKTPENFPDAGLEMNYCRNPDGDKGPWCYTTDPSVRWEYCNLKRCSETGGSVVELPTVSQEPSGPSDSETDCMYGNGKDYRGKTAVTAAGTPCQGWAAQEPHRHSIFTPQTNPRAGLEKNYCRNPDGDVNGPWCYTTNPRKLYDYCDIPLCASASSFECGKPQVEPKKCPGRVVGGCVANPHSWPWQISLRTRFTGQHFCGGTLIAPEWVLTAAHCLEKSSRPEFYKVILGAHEEYIRGLDVQEISVAKLILEPNNRDIALLKLSRPATITDKVIPACLPSPNYMVADRTICYITGWGETQGTFGAGRLKEAQLPVIENKVCNRVEYLNNRVKSTELCAGQLAGGVDSCQGDSGGPLVCFEKDKYILQGVTSWGLGCARPNKPGVYVRVSRFVDWIEREMRNN
B3: Clr (Sigma) (enzyme, UniProt P00736 18-705, looked up, species assumed)
Complement C1r subcomponent: SIPIPQKLFGEVTSPLFPKPYPNNFETTTVITVPTGYRVKLVFQQFDLEPSEGCFYDYVKISADKKSLGRFCGQLGSPLGNPPGKKEFMSQGNKMLLTFHTDFSNEENGTIMFYKGFLAYYQAVDLDECASRSKSGEEDPQPQCQHLCHNYVGGYFCSCRPGYELQEDTHSCQAECSSELYTEASGYISSLEYPRSYPPDLRCNYSIRVERGLTLHLKFLEPFDIDDHQQVHCPYDQLQIYANGKNIGEFCGKQRPPDLDTSSNAVDLLFFTDESGDSRGWKLRYTTEIIKCPQPKTLDEFTIIQNLQPQYQFRDYFIATCKQGYQLIEGNQVLHSFTAVCQDDGTWHRAMPRCKIKDCGQPRNLPNGDFRYTTTMGVNTYKARIQYYCHEPYYKMQTRAGSRESEQGVYTCTAQGIWKNEQKGEKIPRCLPVCGKPVNPVEQRQRIIGGQKAKMGNFPWQVFTNIHGRGGGALLGDRWILTAAHTLYPKEHEAQSNASLDVFLGHTNVEELMKLGNHPIRRVSVHPDYRQDESYNFEGDIALLELENSVTLGPNLLPICLPDNDTFYDLGLMGYVSGFGVMEEKIAHDLRFVRLPVANPQACENWLRGKNRMDVFSQNMFCAGHPSLKQDACQGDSGGVFAVRDPNTDRWVATGIVSWGIGCSRGYGFYTKVLNYVDWIKKEMEEED
B4: murine Granzyme B (recombinant, Peprotech) (protein)
chain: IIGGHEVKPHSRPYMALLSIKDQQPEAICGFLIREDFVLTAAHCEGSIINVTLGAHNIKEQEKTQQVIPMVKCIPHPDYNPKTFSNDIMLLKLKSKAKRTRAVRPLNLPRRNVNVKPGDVCYVAGWGRMAPMGKYSNTLQEVELTVQKDRECESYFKNRYNKTNQICAGDPKTKRASFRGDSGGPLVCKKVAAGIVSYGYKDGSPPRAFTKVSSFLSWIKKTMKSS

Columns and labels:
[1] = system: GzmB peptide substrate AIEFDSGc on PEG-coated iron oxide nanoparticles (GzmB-sensing synthetic biomarker)
[2] = molecular target: T1, GzmB peptide substrate AIEFDSGc on …

Protein	fluorescent intensity (in vitro protease cleavage assay) [1]	fluorescent intensity (in vitro protease cleavage assay) [2]	kcat/KM [2]	rate of cleavage (initial cleavage velocity, fluorescence) [2]
B1	Increases in fluorescent intensity were observed only in samples containing recombinant GzmB	–	–	–
B2	–	Increases in fluorescent intensity were observed only in samples containing recombinant GzmB	–	–
B3	Increases in fluorescent intensity were observed only in samples containing recombinant GzmB	–	–	–
B4	–	Increases in fluorescent intensity were observed only in samples containing recombinant GzmB	Fitted kcat/KM was 1.09×10^4 M^-1s^-1	the substrate that produced the highest rate of cleavage by recombinant GzmB
